Molecular target: Arabidopsis thaliana transthyretin-like protein (TTL), 311-residue cytoplasmic isoform (Arabidopsis thaliana)
Assay: SEC + other: sucrose density gradient rate zonal ultracentrifugation; Siegel and Monty method: Stokes radius from analytical gel filtration (Superose 12 10/300, 0.5 ml/min) and sedimentation coefficient from 5 to 20% sucrose gradients (25 h 15 min, 260800 g, SW41 Ti), both in buffer C (150 mM NaCl, EDTA, 20 mM Tris-HCl, pH 8.0); native mass 137.3 kDa against a subunit of 36.6 kDa

## Arabidopsis thaliana transthyretin-like protein (TTL), 311-residue cytoplasmic isoform (enzyme)
  stoichiometry N: 4

Source: article PMC2834698
